{"source": "paper PMC4125106", "origin": "cited, not measured here", "molecular_target": "insulin receptor (Drosophila melanogaster) (UniProt P09208)", "sequence (P09208 44-1310)": "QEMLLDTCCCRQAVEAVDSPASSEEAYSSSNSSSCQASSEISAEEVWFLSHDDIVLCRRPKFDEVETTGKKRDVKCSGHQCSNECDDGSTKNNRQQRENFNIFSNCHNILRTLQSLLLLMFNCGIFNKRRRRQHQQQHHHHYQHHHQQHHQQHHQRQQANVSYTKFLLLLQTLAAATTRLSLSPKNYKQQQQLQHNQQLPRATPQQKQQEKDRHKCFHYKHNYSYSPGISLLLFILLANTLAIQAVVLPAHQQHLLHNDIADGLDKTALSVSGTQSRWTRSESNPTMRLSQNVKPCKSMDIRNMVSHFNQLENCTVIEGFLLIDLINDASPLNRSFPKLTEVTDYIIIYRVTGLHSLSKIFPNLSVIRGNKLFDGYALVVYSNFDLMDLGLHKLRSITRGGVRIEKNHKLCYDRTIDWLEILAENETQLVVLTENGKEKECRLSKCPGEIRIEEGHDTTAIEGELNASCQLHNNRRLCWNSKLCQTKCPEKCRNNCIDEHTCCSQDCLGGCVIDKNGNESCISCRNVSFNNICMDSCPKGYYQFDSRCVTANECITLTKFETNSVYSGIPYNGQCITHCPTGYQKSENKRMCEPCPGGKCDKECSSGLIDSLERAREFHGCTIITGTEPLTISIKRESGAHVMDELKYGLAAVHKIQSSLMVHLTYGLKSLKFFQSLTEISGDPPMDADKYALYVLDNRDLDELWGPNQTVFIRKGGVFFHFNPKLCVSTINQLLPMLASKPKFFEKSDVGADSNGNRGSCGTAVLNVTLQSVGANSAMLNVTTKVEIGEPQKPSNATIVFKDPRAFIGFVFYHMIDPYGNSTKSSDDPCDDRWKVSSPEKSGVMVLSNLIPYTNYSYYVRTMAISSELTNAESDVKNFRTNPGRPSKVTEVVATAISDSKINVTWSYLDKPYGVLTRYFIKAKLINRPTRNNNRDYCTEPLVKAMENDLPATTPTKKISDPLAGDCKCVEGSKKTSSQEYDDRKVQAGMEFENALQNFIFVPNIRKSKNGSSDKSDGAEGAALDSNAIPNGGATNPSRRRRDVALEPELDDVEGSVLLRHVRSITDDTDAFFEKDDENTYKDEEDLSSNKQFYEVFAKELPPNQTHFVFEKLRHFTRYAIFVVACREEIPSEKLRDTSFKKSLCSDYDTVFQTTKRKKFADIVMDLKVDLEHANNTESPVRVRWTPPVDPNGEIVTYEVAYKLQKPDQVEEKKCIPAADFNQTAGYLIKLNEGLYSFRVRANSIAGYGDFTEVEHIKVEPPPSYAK", "assay": "competitive binding", "data": [{"substance": "Ilp5 (from UniProt Q7KUD5)", "values": [{"measurement": "Kd", "result": 0.555, "unit": "nM"}]}]}
